The values that follow come from patent US20260297176 (published 2026).

Test [1] concerns the target T1, mouse IL-11 (mouse, UniProt P47873).
T1 chain: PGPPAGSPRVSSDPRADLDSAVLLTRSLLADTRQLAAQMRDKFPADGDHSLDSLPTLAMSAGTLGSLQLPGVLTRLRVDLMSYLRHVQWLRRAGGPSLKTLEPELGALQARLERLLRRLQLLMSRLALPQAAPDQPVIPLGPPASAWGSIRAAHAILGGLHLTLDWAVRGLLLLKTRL
The test can be described thus: SPR.

For test [2], the target named is T2, human IL-11 (human).
T2 chain: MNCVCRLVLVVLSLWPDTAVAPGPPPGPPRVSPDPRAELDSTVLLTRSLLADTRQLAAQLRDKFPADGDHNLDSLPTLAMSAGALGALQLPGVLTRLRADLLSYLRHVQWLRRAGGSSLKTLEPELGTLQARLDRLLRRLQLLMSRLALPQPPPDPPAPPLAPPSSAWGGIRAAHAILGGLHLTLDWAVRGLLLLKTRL
The test can be described thus: SPR. On the technique in general: In SPR one partner is held on a chip, and binding of the other changes the refractive index at the surface.

Test [3] concerns the target T1, mouse IL-11. The test is described as follows: SPR.
Test [4] addresses T2, human IL-11. The test is described as follows: SPR 25C.
Test [5] has as its target T2, human IL-11. The test is described as follows: SPR.
The target of test [6] is T1, mouse IL-11. The test is described as follows: SPR steady state.
The target of test [7] is T2, human IL-11. The test can be described thus: SPR.

Where a chain is given by its changes, count along the chain named. Names may count otherwise.

B1: CSJ-A-s-10D10 (antibody, V domains shown)
VH: QVQLKESGPGLVQPSQTLSLTCTVSGFSLTNYHVHWVRQPPGKGLEWMGVMWIDGDTSYNSALRSRLSISRDTSKSQVFLKMSSLQTEDTATYYCAREGLNWFAYWGRGTLVTVSS
VL: DIQMTQSPASLSVSLEEVVTITCKASQGIDDYLSWYQQKPGKSPQLLISDVTSLADGVPSRFSGSRSGTQYSLKISRPQVDDSGIYYCLQSYSTPYTFGAGTKLELK
A word on the Kd: it is the concentration at which binding is half-saturated. A high value points to lower affinity. Take B1: the dissociation constant (Kd) came out at 0.875 nM in the test with mouse IL-11 [1] and 0.424 nM with human IL-11 [2].

B2: CSI-s-9B9 (antibody, V domains shown)
VH: EVHLQQSGPELVKPGASVKMSCKASGYTFTSYVIHWVKQRPGQGLEWIGNIYPYNDDTNYNEKFKGKATLTSDKSSSTAYMELSSLTSEESAVYFCTRERATYGDLAWFAYWGQGTLVTVSA
VL: NIVLTQSPASLAVSLGQRATISCRASENIDSYGNSFMHWYQQKPGQPPKLLIYLASILESGVPARFSGSGSRTDFTLTIDPVEADDAATYYCQQNNEDPYTFGGGTKLEIK
Take B2: the dissociation constant Kd stood at 3.77 nM in the test with mouse IL-11 [1] and 0.145 nM in the test with human IL-11 [2].

B3: CSJ-B-s-3G8 (antibody, V domains shown)
VH: QVTLKESGPGMLQPSKTVSLTCSFSGFSMSTSGMVVSWIRQPSGKSLEWLAAIDWDGEKYYNPSLKSRLTVSKDTSNTQVFLKISSVDIADSATYYCARSGNYFDYWGQGVMVTVSS
VL: DIQMTQSPASLSASLGETVTIECRASEDIYNGLVWYQQKPGKSPQLLIYDANRLHTGVPSRFSGGGSGTQYSLKINSLQSEDVASYFCQQYYDYPNTFGAGTKLELK
Regarding B3, the figures for the dissociation constant (Kd) in the test with mouse IL-11 [1], with mouse IL-11 [3] and in the test with human IL-11 [2] were 0.0502 nM, 0.159 nM and 0.0174 nM, respectively.

B4: VH0/VL0 (antibody, V domains shown)
VH: B3 VH with T3I, V18L, M29L, K83Q, S85T, S86T, S92T, D105E, M112I
VL: B3 VL with I2N, A25T, G32A, V34A, T56I, G65S, Y71F, K107N
The molecule B4 displayed a Kd with human IL-11 [4] of 0.00758 nM.

B5: CSJ-A-s-2B11 (antibody, V domains shown)
VH: QVQLKESGPGLVQPSQTLSLTCTVSGFSLDNYNVHWVRQPTGGGLEWLGGIWTDGITDYTSPLRSRLSISRDTSKSQVFLKMKSLQTEDIATYYCARSYYYSLYYFDYWGQGVMVTVSS
VL: DIQMTQSPASLSASLGETVTIECRASEDIYSNLAWYQQKPGDSPQLLIYDAHRLAEGVPSRFSGSGSGTQYSLKINSLHSEDVASYFCQQYDNYNTFGVGTKLDLK
Consider B5, for which the dissociation constant Kd with mouse IL-11 [1] stood at 28.2 nM; with human IL-11 [5], 0.0214 nM; in the test with human IL-11 [2], 0.0238 nM; with mouse IL-11 [6], 28.2 nM; with human IL-11 [7], 0.0213 nM.

B6: GVH5 (D54E)/GVL5 (antibody, V domains shown)
VH: QITLKESGPTLVKPTQTLTLTCTFSGFSLSTSGMVVGWIRQPPGKALEWLAAIDWEGEKYYSPSLKSRLTITKDTSKNQVVLTMTNMDPVDTATYYCARSGNYFEYWGQGTLVTVSS
VL: DIQMTQSPSSLSASVGDRVTITCRTSEDIYNALAWYQQKPGKAPQLLIYDANRLHIGVPSRFSGSGSGTDFTLTISSLQPEDFATYYCQQYYDYPNTFGQGTKLEIK
On to B6, for which the affinity with human IL-11 [4], expressed as Kd, was 0.0966 nM.

B7: CVH3 (D54E)/CVL3 + YTE (antibody, V domains shown)
VH: QVQLQESGPGLVKPSQTLSLTCSFSGFSLSTSGMVVSWIRQPPGKALEWLAAIDWEGEKYYNPSLKSRLTVTKDTSNTQVVLTMTNMDPVDTATYYCARSGNYFEYWGQGTLVTVSS
VL: B6 VL with I2N, S60D, P80A, F83V, T85V
As for B7, the Kd with human IL-11 [4] worked out at 0.00142 nM.

B8: CVH4 (D54E)/CVL3 (antibody, V domains shown)
VH: B7 VH with N77K, T78N
VL: B6 VL with I2N, S60D, P80A, F83V, T85V
Turning to B8, in the test with human IL-11 [4], binding was put at a Kd of 0.00748 nM.

B9: CVH3 (D54E)/CVL3 (antibody, V domains shown)
VH: B7 VH
VL: B6 VL with I2N, S60D, P80A, F83V, T85V
For B9, the Kd in the test with human IL-11 [4] worked out at 0.00501 nM.

B10: GVH5 (D54E)/CVL3 (antibody, V domains shown)
VH: B6 VH
VL: B6 VL with I2N, S60D, P80A, F83V, T85V
With B10, binding in the test with human IL-11 [4] was put at a Kd of 0.0181 nM.

B11: GVH5 (D54E)/GVL5 + YTE (antibody, V domains shown)
VH: B6 VH
VL: B6 VL
Consider B11, for which the Kd with human IL-11 [4] worked out at 0.0792 nM.

B12: GVH5 (D54E)/CVL3 + YTE (antibody, V domains shown)
VH: B6 VH
VL: B6 VL with I2N, S60D, P80A, F83V, T85V
As to B12, in the test with human IL-11 [4], the Kd worked out at 0.00989 nM.

B13: CVH4 (D54E)/CVL3 + YTE (antibody, V domains shown)
VH: B7 VH with N77K, T78N
VL: B6 VL with I2N, S60D, P80A, F83V, T85V
In turn, B13 returned a Kd in the test with human IL-11 [4] of 0.00334 nM.
